Experimental data taken from publication PMC7396596.

Target: Recombinant SCY2 (Scylla paramamosain)
Test: SPR; Biacore T200, CM5 chip; rSCY2 immobilised (~1,000 RU); rScyreprocin 12.5-400 nM flowed over; multiple cycle kinetics, 25°C, 30 μl/min, HEPES-buffered saline

Kd: 20.8 nM
Substance: His-tagged scyreprocin (rScyreprocin) (natural protein)
